{"source": "paper PMC3369931", "assay_in_all_cases": "EMSA", "key": {"[1]": {"tested_on": "EutV ANTARcc (Enterococcus faecalis (V583?))", "conditions": "10 mM Mg2+; 50 mM Hepes pH 7.5, 150 mM NaCl, 10 mM MgCl2, 2.5 ng/ul yeast tRNA, ~2 fmol RNA in 10 ul, 30 min at 25 C; EMSA on 5% native TBE gel, or DRaCALA on …"}, "[2]": {"tested_on": "EutV ANTAR (Enterococcus faecalis (V583?))", "conditions": "10 mM Mg2+; 50 mM Hepes pH 7.5, 150 mM NaCl, 10 mM MgCl2, 2.5 ng/ul yeast tRNA, ~2 fmol RNA in 10 ul, 30 min at 25 C; EMSA on 5% native TBE gel, or DRaCALA on …"}, "[3]": {"tested_on": "EutV full length (Enterococcus faecalis (V583?))", "conditions": "unphosphorylated; 10 mM Mg2+; 50 mM Hepes pH 7.5, 150 mM NaCl, 10 mM MgCl2, 2.5 ng/ul yeast tRNA, ~2 fmol RNA in 10 ul, 30 min at 25 C; EMSA on 5% native TBE gel, or DRaCALA on …"}}, "note": "pKd: −log10 of the molar value."}
{"sequence": "GGGCAAAGAAUCAGAAACACAAUGGCGUGUUUUAACAAUCGGCAAAGGAGCCCAAGACUAAGUACGUG [eutP 5' leader dual hairpin RNA, wild type]", "values": [{"measurement": "pKd", "setting": "[1]", "result": 6.15}, {"measurement": "binding signal (fold weaker than ANTARcc)", "setting": "[2]", "result": 100}, {"measurement": "pKd", "setting": "[3]", "result": 5.00}]}
